Source: patent US20190269750A1, “PHARMACEUTICAL COMPOSITION AND METHOD OF TREATING FEMALE SEXUAL DYSFUNCTIONS” ("IVIX" Ltd., priority 2016, published 2019)
No end group written: not given here.

Experiment: Distribution of tritium-labelled pentapeptide after intranasal administration
Type: in vivo
Details: rats, tritium label
Method: The study to determine how the medication of the invention is distributed through the body and reaches the brain was conducted on rats. Specially prepared rats were intranasally administered the pharmaceutical composition containing the pentapeptide of the invention radioactively-labelled with tritium. The animals were then euthanized at certain time intervals to be able to assess the biodistribution of the peptide in the brain and its transportation path.

Substance: pentapeptide of the invention radioactively-labelled with tritium: pentapeptide Thr-Lys-Pro-Arg-Pro (SEQ ID NO: 5) labelled with tritium, given intranasally in a pharmaceutical composition (TKPRP; also: tritium label, position not given here)
- biodistribution: delivery to the brain: a significant part of the medication reached the brain undegraded
- biodistribution: site of detection: detected in the olfactory bulbs and other parts of the brain
